# Assay results reported in patent US20230057263A1 (CYTOMX THERAPEUTICS, published 2023).
# Positions count from the first letter of the chain named. No end group written: not given here. *: point of attachment. Biotin = O=C1N[C@H]2[C@H](CS[C@H]2CCCCC(=O)*)N1; linker = not defined here
# T1: biotinylated 15-mer peptide corresponding to the CD3ε N-terminus (human, UniProt P07766 22-36, limits assumed, not fully specified; reading uncertain)
# T1 construct: domain: N-terminal 15-mer; Immobilised on streptavidin-conjugated Luminex beads; The text says 'peptides' in the plural, so more than one overlapping N-terminal 15-mer may be meant; also called N-terminal 15-mer; biotinylated N-terminal 15-mer
# T1 peptide (looked up): {Biotin-linker}-QDGNEEMGGITQTPY
# B1: 6d58 (antibody, V domains shown)
# VH: QVHLVESGGGVVQPGRSLRLSCAASGFKFRSYGMHWVRQAPGKGLEWVAIIWYDGSKRYYADSVKGRFTISRDNSKNTLYLQMSSLRAEDTAVYYCARDLITGTTDYWGQGTLVTVSS
# VL: DVVMTQSPLSLPVTLGQPASISCRSSRSLVYSDGNTHLIWFQQRPGQSPRRLIYRVSNRVSGVPDRFSGSGSGTDFTLKISRVEAEDVGVYYCLQGAHWPYTFGQGTKLEIKR
# notes: also called 6d58 (same as 6d59)
# B2: 1c144.1 (antibody, V domains shown)
# VH: ELQLVESGGGLVQPGGSLRLSCAASGFNFRSYEMNWVRQAPGKGLEWVSYISSSSTTIYYAGSVKGRFTISRDNAKHSLYLQMNSLRAEDTAVYYCARDRGALDYWGQGTLVTVSS
# VL: DIQMTQSPSSLSASVGDRVTITCQASQDIRKYLNWYQQKPGKAPKLLIYDASNLETGVPSRFSGSGSGTDFSFTISSLQPEDLATYYCQHYANLPPLFTFGPGTKVDIKR
# notes: the sheet prints 1c144.1
# B3: 6d59.id.1b18.1 (antibody, V domains shown)
# VH: DVLLQESGPGLVKPSQSLSLTCSVTGYSITSGHYWIWIRQFPGNKLEWMGYITYDGSNNYNPSLKKRISITRDTSENQFFLKLNPVTTEDTATYYCARDVADSYGNGYDAMDYWGQGTSVTVSS
# VL: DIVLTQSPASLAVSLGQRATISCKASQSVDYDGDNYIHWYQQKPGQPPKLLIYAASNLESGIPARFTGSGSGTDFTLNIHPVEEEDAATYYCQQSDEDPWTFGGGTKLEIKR
# notes: Anti-idiotypic antibody against 6d59
# B4: 6d59.id.1b67.1 (antibody, V domains shown)
# VH: QVTLKESGPGILKPSQTLSLTCSFSGFSLSTSGMGVGWIRQPSGKGLEWLAHIWWDDDKFYKPSLKNRLTISKDTSRNQVFLKITSVDTADAATYFCVRRSAYEAFTLDYWGQGTSVTVSS
# VL: DIMLTQSPASLAVSLGQRATISCKASQSVDYDGNGYLNWYQQKPGQPPKLLIYAASNLESGIPARFSGSGSGTDFTLNIHPVEEEDVATYYCQQSSEDPFTFGSGTKLEIKR
# notes: as for B3
# B5: 6d59.id.1b54.1 (antibody, V domains shown)
# VH: DVQLQESGPGLVKPSQSLSLTCSVTGYSITSSYYWNWIRQFPGNKLEWMGSIMYDGNNNYNPSLKNRISITRDTSKNQFFLKLNSVTTEDTATYYCARNMADYFGNTYDALDYWGQGTSVTVSS
# VL: DILLTQSPGSLAVSLGQRATISCKASQSADYGGDSYMSWYQQKPGQPPKLLIYAASNLESGTPARFSGSGSGTDFTLNIHPVEEEDAATYYCQQGNEDPWTFGGGTKLEIKR
# notes: as for B3
# B6: 6d59.id.1b71.1 (antibody, V domains shown)
# VL: B4 VL with M3V, L37M, V87A, S96N, F100Y, S104G
# V domain: EVQLQQSGSELASPGTSVKLSCKASGYTFTSYWVQWIKQRPGQGLEWIGAIYPGDGDLRSTQKFKGKATLTADKSSDTAYMQLSSLASEDSAVYYCARLDDFDLDYWGQGTTLIVSS
# notes: as for B3
# B7: 6d59.id.1b73.1 (antibody, V domains shown)
# VH: QVQLQQSGPEVVKPGASVKMSCKASGYTFTDCVISWIKQRTGQGLEWIGEIHPGSGNTYNNEKFKGKATLTADKSSNTAYIQLSSLTSEDSAVYFCARVGDWYDDAMDYWGQGTSVTVSS
# VL: B4 VL with M3V, L37M, V87A, S96N, F100Y, S104G
# notes: as for B3
# B8: 6d59.id.1b76.1 (antibody, V domains shown)
# VH: DVKLVDSGGGLVKPGGSLKLSCAASGFTFSNYGMSWVRQTPEKRLEWVATISSGGYYTYYPDSVKGRFTISRDNAKNTLYLQMGSLKSEDTAMYYCSRDREGFGNYLGAMDYWGQGTSVTVSS
# VL: B4 VL with M3V, L37M, V87A, S96N, F100Y, S104G
# notes: as for B3
# B9: 6d59.id.1b61.1 (antibody, V domains shown)
# VH: B5 VH with S51Y
# VL: B5 VL
# notes: as for B3
# B10: 4b8 (antibody, V domains shown)
# VH: EVQLVESGGGLVKPGGSLRLSCAASGFTFSSYSMNWVRQAPGKGLDWVSYISRSSNYTYYADSVMGRFTISRDNAKNSLYLQMNSLRAEDTAVYYCARDRRGYSGYNHFDYWGQGTLVTVSS
# VL: DIQMTQSPSSLSASVGDRVTITCRASQSISNYLNWYQQKPGKAPKLLIYAASSLQSGVPSRFSGSRSGTDFTLTISSLQPEDFASYYCQQSFSTLYTFGQETKLEIKR
# notes: Anti-CD3ε antibody
# B11: 6d23 (antibody, V domains shown)
# VH: QVQLVESGGGVVQPGRSLRLSCEASGFTFRSYGMHWVRQAPGKGLEWVAIIWYDGSNKYYGDSVKGRFTISRDNSKNTLSLQMNSLRAEDTAVYYCASLSVNDYYVLDVWGQGTTVTVSS
# VL: DVVMTQSPFSLPVTLGQPASMSCRSSQSLVNSDGKTHLNWFQQRPGQSPRRLIYKVSNRDSGVPDRFSGSGSGTDFTLKISRVEAEDVGVYYCMQGTHWPLTFGGGTKVEIKR
# notes: Anti-CD3ε antibody; also called 6d23.1; VCD3-6d23.1
# Key:
# [1] = biological target: T2, cynomolgus CD3-epsilon (cynomolgus, UniProt Q95LI5 22-198); assay: flow cytometry on cynomolgus T cells
# T2 construct: whole, on cells; also called CD3ε on cynomolgus T cells / PBMCs
# T2 sequence (Q95LI5 22-198): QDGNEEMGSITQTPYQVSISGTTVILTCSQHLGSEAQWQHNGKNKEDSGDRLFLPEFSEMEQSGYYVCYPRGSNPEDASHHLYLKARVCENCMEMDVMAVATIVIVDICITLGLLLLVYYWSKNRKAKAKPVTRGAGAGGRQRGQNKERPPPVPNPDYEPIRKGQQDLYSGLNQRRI
# Experimental: (§1) In these experiments, human or cynomolgus T cells were incubated with an anti-CD3ε antibody and binding was assessed by flow cytometry.
# (§2) Briefly, donor T cells from either human or cynomolgus donors were resuspended in FACS buffer containing 0.1% sodium azide and aliquoted in 100 μL volumes. For incubation, 100 μL aliquots of donor T cells were mixed with 50 μL of antibodies diluted in FACS buffer containing 0.1% sodium azide. The cells were then washed twice with FACS buffer containing sodium azide. The bound antibody was detected by incubating cells for 60 minutes with a 1:200 dilution of SAV-RPE (Invitrogen Cat No. SA10044, Lot. 1542820A) or 1:100 dilution of goat-anti-Mouse Fcγ-RPE (Jackson Cat. No. 115-116-071, Lot. 108668, diluted in 0.2% goat serum). The cells were washed, fixed, and analyzed with an Accuri Flow Cytometer.
# (§3) Treatment with OKT3, SP34-2, and diL2K antibodies were used as positive controls for T cell binding. […] Treatment with OKT3, SP34-2, and diL2K antibodies were used as controls for T cell binding with only SP34-2 binding to cynomolgus T cells, as expected.
# [2] = biological target: T3, human CD3 epsilon (CD3ε) (human, UniProt P07766 23-207); assay: flow cytometry on human T cells
# T3 construct: Present on donor human T cells as part of the TCR-CD3 complex; also called CD3ε on human T cells
# Experimental: as §1, §2, §3
# [3] = biological target: T2, cynomolgus CD3-epsilon; assay: flow cytometry, three-colour staining (CD3/CD4/CD8) of cynomolgus PBMCs of three donors
# Experimental: Cross-reactivity of anti-CD3ε antibodies to cynomolgus CD3-epsilon was assessed by three-color phenotyping (CD3/CD4/CD8) using PBMCs from three different cynomolgus donors.
# PBMCs from different cynomolgus donors were stained with anti-CD4, anti-CD8, and a panel of different anti-CD3 antibodies. For each anti-CD3 antibody, the CD3 positive cells were gated and assessed for their CD4/CD8 phenotype. FIG. 8A depicts the total CD3 positive cells in PBMCs from the three different donors. FIGS. 8B-8E show the percentage of CD3 positive cells displaying CD4−/CD8+, CD4+/CD8−, CD4+/CD8+, and CD4−/CD8− phenotypes, respectively.
# [4] = biological target: T4, AGS73.15 (MS497); assay: flow cytometry, blocking of AGS73.15 (200 ng/ml) binding to CD3ε on human T cells; AGS73.15 detected with anti-human IgG Fc-PE
# T4 construct: It carries a human IgG Fc (detected with anti-human IgG Fc)
# [5] = biological target: T4, AGS73.15 (MS497); assay: flow cytometry, blocking of AGS73.15 binding to CD3ε on human T cells, % binding, the axis reads nM
# [6] = biological target: T1, biotinylated 15-mer peptide …; assay: Luminex bead assay, peptide on streptavidin beads
# Experimental: A set of experiments was performed to map the epitope recognized by the anti-CD3ε antibodies. In these experiments, the anti-CD3ε antibodies were assessed for binding to a collection of overlapping 15-mer peptides spanning amino acids 1-27 of human CD3ε protein using a Luminex bead assay. Control CD3 proteins, control peptides, or the test peptides were immobilized on Luminex beads and incubated with a panel of anti-CD3 antibodies. Binding of the anti-CD3 antibodies to the peptide/protein immobilized on the Luminex bead was detected by R-Phycoerythrin conjugated secondary antibody.
# Recombinant CD3 proteins (human CD3d/e heterodimer and cynomolgus CD3-epsilon (Sinobiological)) and control peptides (#p1, #p2, and #p3) were conjugated to Luminex beads using standard EDC/Sulfo-NHS chemistry. […] The Luminex beads with immobilized peptides or reagents were incubated with 50 ul of a panel of anti-CD3 antibodies (1 ug/ml) for one hour at room temperature, washed two times, incubated with mixture of anti-human and anti-mouse IgG-RPE (Jackson Immunoresearch 109-116-097 and Southern Biotech 1030-09, respectively) for 30 mins at RT, washed three times, and analyzed in the Luminex instrument to assess the level of bound anti-CD3 antibodies.
IC50 (read off the curve) [4] [µg/mL],EC50 [5] [pM],further results,Binder
,,EC50 (read off the curve) [1]: ~70 pM; EC50 (read off the curve) [2]: ~50 pM,B1
,,binding result [3]: binds,B2
~0.07,443,,B3
~0.08,560,,B4
~0.07,414,,B5
~0.06,327,,B6
~0.05,335,,B7
~0.05,243,,B8
~0.06,368,,B9
,,binding result [1]: no binding; EC50 (read off the curve) [2]: 1000 to 3000 pM,B10
,,binding result [6]: no binding (tested: 1 ug/ml),B11
